Experimental findings from article PMC10901741, “Autonomous transposons tune their sequences to ensure somatic suppression” are described below.

Common to all, as to details: protein: recombinant; tags: Halo (N-terminal 10xHis-TEV removed), OregonGreen on Halo; label: 3' CF 647 hydrazide (periodate-oxidized end); single-stranded
The target of series [1] is T1, Halo-TRA2B RRM (UniProt P62995 111-201).
T1 sequence: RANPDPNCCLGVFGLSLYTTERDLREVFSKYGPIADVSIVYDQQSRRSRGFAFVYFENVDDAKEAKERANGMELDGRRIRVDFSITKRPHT
The series can be described thus: EMSA; protein 3.6-102.4 uM; lost all interactions; EMSA: 25 mM Tris-Cl pH 7.4, 50 mM KCl, 5% glycerol, 1 mM DTT, ~100 nM RNA, 30 min on ice, 8% native PAGE 0.5x TBE; pull-down: 25 mM Tris-Cl pH 7.4, ~75 mM KCl. (In general: A gel shift assay detects complexes by their altered migration in electrophoresis.)

Series [2] addresses T2, Halo-SAFB1 RRM (UniProt Q15424 386-485). The series can be described thus: EMSA; protein 3.6-102.4 uM; barely affected by m6A; EMSA: 25 mM Tris-Cl pH 7.4, 50 mM KCl, 5% glycerol, 1 mM DTT, ~100 nM RNA, 30 min on ice, 8% native PAGE 0.5x TBE; pull-down: 25 mM Tris-Cl pH 7.4, ~75 mM KCl.
Series [3] concerns the target T1, Halo-TRA2B RRM. The series is described as follows: EMSA; protein 3.6-102.4 uM; clearly higher affinity than SAFB1 RRM; EMSA: 25 mM Tris-Cl pH 7.4, 50 mM KCl, 5% glycerol, 1 mM DTT, ~100 nM RNA, 30 min on ice, 8% native PAGE 0.5x TBE; pull-down: 25 mM Tris-Cl pH 7.4, ~75 mM KCl.
Series [4] concerns the target T2, Halo-SAFB1 RRM. The series is described as follows: EMSA; protein 3.6-102.4 uM; lower affinity than TRA2B RRM; EMSA: 25 mM Tris-Cl pH 7.4, 50 mM KCl, 5% glycerol, 1 mM DTT, ~100 nM RNA, 30 min on ice, 8% native PAGE 0.5x TBE; pull-down: 25 mM Tris-Cl pH 7.4, ~75 mM KCl.

T2 sequence (Q15424 386-485): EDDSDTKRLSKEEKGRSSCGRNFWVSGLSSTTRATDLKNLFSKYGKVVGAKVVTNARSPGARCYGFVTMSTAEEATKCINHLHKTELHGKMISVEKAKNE

With GGGAAGAAGAAGAAGAAGAAGAAGAU (ssRNA, all A are N6-methyladenosine) [(m6AGm6A)x7 RNA, methylated], the binding result in the series with Halo-TRA2B RRM [1] is “no binding”; with Halo-SAFB1 RRM [2], “binds”.

On to GGGAAGAAGAAGAAGAAGAAGAAGAU (ssRNA) [(AGA)x7 RNA, unmethylated], for which the binding result with Halo-TRA2B RRM [3] and with Halo-SAFB1 RRM [4] was “binds” in each case.
